Patent publication US20180369425A1, “LINKED AND OTHER pH-TRIGGERED COMPOUNDS” (priority 2017, published 2018)
Residues, ends and D or L forms follow the SMILES beside them. *: point of attachment. X1 = CC1(C)C(/C=C/C=C/C=C/C=C2/N(CCCCCC(=O)NCCN3C(=O)CC(*)C3=O)c3ccc4ccccc4c3C2(C)C)=[N+](CCCCS(=O)(=O)[O-])c2ccc3ccccc3c21

System: 4T1 tumor
Assay: Ex vivo NIRF imaging of organs (biodistribution and kinetics of ICG-pHLIP)
Type: in vivo, mouse
Settings: for Fluorescence intensity, Stomach / Fluorescence intensity, Tumor / Fluorescence intensity, Bone / Fluorescence intensity, Brain / Fluorescence intensity, Heart / Fluorescence intensity, Kidneys / Fluorescence intensity, L. Intest. / Fluorescence intensity, Liver / Fluorescence intensity, Lungs / Fluorescence intensity, Muscle / Fluorescence intensity, Pancreas / Fluorescence intensity, S. Intest. / Fluorescence intensity, Skin / Fluorescence intensity, Spleen: mean ± St. D., 5 animals
Protocol: BALB/cAcNHsd mice ranging in age from 5 to 6 weeks obtained from Envigo RMS Inc were used in the study. Mouse mammary 4T1 cancer cells were subcutaneously implanted in the right flank (8×10^5 cells/0.1 mL/flank) of adult female mice. Triple negative 4T1 tumor model closely mimics stage IV of human breast cancer. When tumors reached 5-6 mm in diameter, single tail vein injections of 2.5 nmol (or 0.5 mg/kg) of ICG-pHLIP in sterile PBS with 5% DMSO or 5% Ethanol (volume of the injection was 100 μl) were performed. The whole body and ex vivo imaging was performed using a Stryker 1588 AIM clinical imaging system with L10 AIM Light Source, 1588 AIM Camera using a 10 mm or 5 mm scope.
Animals were euthanized at time points: 5 min, 1 hr, 2 hrs, 4 hrs, 6 hrs, 16 hrs, 26 hrs and 48 hrs. […] 100 μl of blood was collected immediately after euthanasia and mixed with 12.5 μl of citrate-dextrose anticoagulant solution (kept at 4° C.), and necropsy was performed. Tumor, muscles, skin, heart, lungs, liver, spleen, kidneys, brain, pancreas, bone, stomach, small and large intestines were collected, imaged immediately after collection, weighed, and fast frozen in liquid nitrogen.
The ex vivo imaging of organs was performed using a Stryker 1588 AIM clinical imaging system with L10 AIM Light Source, 1588 AIM Camera using a 10 mm scope. The lens was spaced 4.3 cm away from the surface of the organs within an enclosed (light protected) area. The NIRF imaging of each organ was performed at three different laser intensities set on a hexadecimal scale as 0B-22 (low), 12-5C (medium), and 20-3A (high). The digital images of organs were processed using program written in Python to determine the average level of intensity recorded in the green channel. Since organs were imaged in the dark on black mats, the background signal was determined by introducing an intensity threshold. All the pixels with intensity from the green channel above the set threshold were counted and the average green intensity per pixel was calculated. Thus, the mean intensity per organ (Table 17a) and averaged over organs from 5 animals (Table 17b) was calculated.

CC(C)C[C@H](NC(=O)[C@H](Cc1ccc(O)cc1)NC(=O)[C@H](C)NC(=O)[C@H](CCCNC(=N)N)NC(=O)[C@H](Cc1c[nH]c2ccccc12)NC(=O)[C@@H]1CCCN1C(=O)[C@H](CC(N)=O)NC(=O)[C@H](CCC(N)=O)NC(=O)[C@H](CC(=O)O)NC(=O)[C@H](CC(=O)O)NC(=O)[C@H](CSC1CC(=O)N(CCNC(=O)CCCCCN2/C(=C/C=C/C=C/C=C/C3=[N+](CCCCS(=O)(=O)[O-])c4ccc5ccccc5c4C3(C)C)C(C)(C)c3c2ccc2ccccc32)C1=O)NC(=O)[C@H](C)N)C(=O)N[C@@H](CC(=O)O)C(=O)N[C@@H](CC(C)C)C(=O)N[C@@H](CC(C)C)C(=O)N[C@@H](Cc1ccccc1)C(=O)N1CCC[C@H]1C(=O)N[C@H](C(=O)N[C@@H](CC(=O)O)C(=O)N[C@H](C(=O)N[C@@H](CC(C)C)C(=O)N[C@@H](CC(C)C)C(=O)N[C@@H](CC(C)C)C(=O)N[C@@H](CC(=O)O)C(=O)N[C@@H](CC(C)C)C(=O)N[C@@H](CC(C)C)C(=O)N[C@@H](Cc1c[nH]c2ccccc12)C(=O)N[C@@H](C)C(=O)O)[C@@H](C)O)[C@@H](C)O (some centres unmarked) [ICG-pHLIP] (H-AC(X1)DDQNPWRAYLDLLFPTDTLLLDLLWA-OH)
Fluorescence intensity, Stomach (2 hours p.i.): 80.7 ± 18.6 a.u. | Fluorescence intensity, Tumor (2 hours p.i.): 133.9 ± 14.2 a.u. | Fluorescence intensity, Bone (4 hours p.i.): 63.1 ± 21.0 a.u. | Fluorescence intensity, Brain (4 hours p.i.): 73.8 ± 8.3 a.u. | Fluorescence intensity, Heart (4 hours p.i.): 185.6 ± 7.2 a.u. | Fluorescence intensity, Kidneys (4 hours p.i.): 185.5 ± 6.2 a.u. | Fluorescence intensity, L. Intest. (4 hours p.i.): 7.9 ± 17.6 a.u. | Fluorescence intensity, Liver (4 hours p.i.): 540.1 ± 18.8 a.u. | Fluorescence intensity, Lungs (4 hours p.i.): 187.0 ± 17.2 a.u. | Fluorescence intensity, Muscle (4 hours p.i.): 26.2 ± 24.6 a.u. | Fluorescence intensity, Pancreas (4 hours p.i.): 92.0 ± 2.5 a.u. | Fluorescence intensity, S. Intest. (4 hours p.i.): 64.9 ± 16.3 a.u. | Fluorescence intensity, Skin (4 hours p.i.): 48.2 ± 11.6 a.u. | Fluorescence intensity, Spleen (4 hours p.i.): 150.9 ± 11.4 a.u. | Fluorescence intensity, Stomach (4 hours p.i.): 108.4 ± 6.5 a.u. | Fluorescence intensity, Tumor (4 hours p.i.): 211.2 ± 15.7 a.u. | Fluorescence intensity, Bone (6 hours p.i.): 66.7 ± 16.0 a.u. | Fluorescence intensity, Brain (6 hours p.i.): 55.3 ± 11.0 a.u. | Fluorescence intensity, Heart (6 hours p.i.): 163.0 ± 8.2 a.u. | Fluorescence intensity, Kidneys (6 hours p.i.): 174.0 ± 5.0 a.u. | Fluorescence intensity, L. Intest. (6 hours p.i.): 27.1 ± 15.6 a.u. | Fluorescence intensity, Liver (6 hours p.i.): 527.1 ± 44.4 a.u. | Fluorescence intensity, Lungs (6 hours p.i.): 156.8 ± 15.9 a.u. | Fluorescence intensity, Muscle (6 hours p.i.): 0.0 ± 0.0 a.u. | Fluorescence intensity, Pancreas (6 hours p.i.): 82.2 ± 15.3 a.u. | Fluorescence intensity, S. Intest. (6 hours p.i.): 54.2 ± 11.6 a.u. | Fluorescence intensity, Skin (6 hours p.i.): 47.1 ± 13.6 a.u. | Fluorescence intensity, Spleen (6 hours p.i.): 148.1 ± 13.4 a.u. | Fluorescence intensity, Stomach (6 hours p.i.): 126.8 ± 9.9 a.u. | Fluorescence intensity, Tumor (6 hours p.i.): 198.6 ± 33.0 a.u. | Fluorescence intensity, Bone (16 hours p.i.): 66.2 ± 8.5 a.u. | Fluorescence intensity, Brain (16 hours p.i.): 35.3 ± 1.8 a.u. | Fluorescence intensity, Heart (16 hours p.i.): 129.2 ± 15.7 a.u. | Fluorescence intensity, Kidneys (16 hours p.i.): 170.6 ± 12.8 a.u. | Fluorescence intensity, L. Intest. (16 hours p.i.): 40.5 ± 4.0 a.u. | Fluorescence intensity, Liver (16 hours p.i.): 400.5 ± 34.1 a.u. | Fluorescence intensity, Lungs (16 hours p.i.): 141.3 ± 21.5 a.u. | Fluorescence intensity, Muscle (16 hours p.i.): 0.0 ± 0.0 a.u. | Fluorescence intensity, Pancreas (16 hours p.i.): 70.3 ± 30.0 a.u. | Fluorescence intensity, S. Intest. (16 hours p.i.): 83.8 ± 13.6 a.u. | Fluorescence intensity, Skin (16 hours p.i.): 76.7 ± 20.4 a.u. | Fluorescence intensity, Spleen (16 hours p.i.): 116.3 ± 25.0 a.u. | Fluorescence intensity, Stomach (16 hours p.i.): 117.3 ± 33.1 a.u. | Fluorescence intensity, Tumor (16 hours p.i.): 222.8 ± 11.0 a.u. | Fluorescence intensity, Bone (26 hours p.i.): 42.8 ± 6.4 a.u. | Fluorescence intensity, Brain (26 hours p.i.): 0.0 ± 0.0 a.u. | Fluorescence intensity, Heart (26 hours p.i.): 61.3 ± 6.6 a.u. | Fluorescence intensity, Kidneys (26 hours p.i.): 111.8 ± 7.9 a.u. | Fluorescence intensity, L. Intest. (26 hours p.i.): 0.0 ± 0.0 a.u. | Fluorescence intensity, Liver (26 hours p.i.): 213.1 ± 9.7 a.u. | Fluorescence intensity, Lungs (26 hours p.i.): 64.2 ± 13.9 a.u. | Fluorescence intensity, Muscle (26 hours p.i.): 8.6 ± 19.2 a.u. | Fluorescence intensity, Pancreas (26 hours p.i.): 30.9 ± 17.9 a.u. | Fluorescence intensity, S. Intest. (26 hours p.i.): 37.8 ± 4.7 a.u. | Fluorescence intensity, Skin (26 hours p.i.): 25.1 ± 24.8 a.u. | Fluorescence intensity, Spleen (26 hours p.i.): 48.0 ± 7.7 a.u. | Fluorescence intensity, Stomach (26 hours p.i.): 59.1 ± 13.4 a.u. | Fluorescence intensity, Tumor (26 hours p.i.): 182.6 ± 14.7 a.u. | time of maximum signal in liver (p.i.): 1 h
